Measured values as given in PMC11352552.
Each block holds one molecule with its values, some of them ahead of it.

Target: T1, recombinant human PSGL-1 Fc fusion protein (human)
T1 sequence (Q14242 whole entry, looked up): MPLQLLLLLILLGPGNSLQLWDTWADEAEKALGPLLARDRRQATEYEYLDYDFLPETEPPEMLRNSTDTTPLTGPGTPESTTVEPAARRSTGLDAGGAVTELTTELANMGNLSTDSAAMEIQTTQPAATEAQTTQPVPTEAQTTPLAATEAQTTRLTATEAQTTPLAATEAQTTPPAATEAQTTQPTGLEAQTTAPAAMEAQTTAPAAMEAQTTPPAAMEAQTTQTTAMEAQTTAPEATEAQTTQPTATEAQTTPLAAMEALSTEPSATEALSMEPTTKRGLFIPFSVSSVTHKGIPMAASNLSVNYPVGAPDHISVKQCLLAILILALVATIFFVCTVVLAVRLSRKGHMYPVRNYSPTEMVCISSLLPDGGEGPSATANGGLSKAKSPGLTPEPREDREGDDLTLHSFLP
Assay: ELISA; EC50 of biotinylated P- and L-selectin binding to PSGL-1; the titration itself is not described, the values are given in the competition protocol

EC50: 1 nM
Molecule: biotinylated P-selectin (from UniProt P16109 42-771) (natural protein)

EC50: 40 nM
B1: biotinylated L-selectin (natural protein)
chain: WTYHYSEKPMNWQRARRFCRDNYTDLVAIQNKAEIEYLEKTLPFSRSYYWIGIRKIGGIWTWVGTNKSLTEEAENWGDGEPNNKKNKEDCVEIYIKRNKDAGKWNDDACHKLKAALCYTASCQPWSCSGHGECVEIINNYTCNCDVGYYGPQCQFVIQCEPLEAPELGTMDCTHPLGNFSFSSQCAFSCSEGTNLTGIEETTCGPFGNWSSPEPTCQVIQCEPLSAPDLGIMNCSHPLASFSFTSACTFICSEGTELIGKKKTICESSGIWSNPSPICQKLDKSFSMIKEGDYN
modifications: biotinylated
